Measurements from patent publication US20090214427.

T1: synthetic peptide HK2p02 (AARRPFPAPS)
T1 chain: AARRPFPAPS

T2: synthetic peptide HK2p01 (SRFKVWWAAG)
T2 chain: SRFKVWWAAG

T3: synthetic peptide HK2p03 (PARRPFPVTA)
T3 chain: PARRPFPVTA

B1: human plasmin (protein)
chain: KVYLSECKTGNGKNYRGTMSKTKNGITCQKWSSTSPHRPRFSPATHPSEGLEENYCRNPDNDPQGPWCYTTDPEKRYDYCDILECEEECMHCSGENYDGKISKTMSGLECQAWDSQSPHAHGYIPSKFPNKNLKKNYCRNPDRELRPWCFTTDPNKRWELCDIPRCTTPPPSSGPTYQCLKGTGENYRGNVAVTVSGHTCQHWSAQTPHTHNRTPENFPCKNLDENYCRNPDGKRAPWCHTTNSQVRWEYCKIPSCDSSPVSTEQLAPTAPPELTPVVQDCYHGDGQSYRGTSSTTTTGKKCQSWSSMTPHRHQKTPENYPNAGLTMNYCRNPDADKGPWCFTTDPSVRWEYCNLKKCSGTEASVVAPPPVVLLPDVETPSEEDCMFGNGKGYRGKRATTVTGTPCQDWAAQEPHRHSIFTPETNPRAGLEKNYCRNPDGDVGGPWCYTTNPRKLYDYCDVPQCAAPSFDCGKPQVEPKKCPGRVVGGCVAHPHSWPWQVSLRTRFGMHFCGGTLISPEWVLTAAHCLEKSPRPSSYKVILGAHQEVNLEPHVQEIEVSRLFLEPTRKDIALLKLSSPAVITDKVIPACLPSPNYVVADRTECFITGWGETQGTFGAGLLKEAQLPVIENKVCNRYEFLNGRVQSTELCAGHLAGGTDSCQGDSGGPLVCFEKDKYILQGVTSWGLGCARPNKPGVYVRVSRFVTWIEGVMRNN
B2: human trypsin 2 (protein)
chain: IVGGYICEENSVPYQVSLNSGYHFCGGSLISEQWVVSAGHCYKSRIQVRLGEHNIEVLEGNEQFINAAKIIRHPKYNSRTLDNDILLIKLSSPAVINSRVSAISLPTAPPAAGTESLISGWGNTLSSGADYPDELQCLDAPVLSQAECEASYPGKITNNMFCVGFLEGGKDSCQGDSGGPVVSNGELQGIVSWGYGCAQKNRPGVYTKVYNYVDWIKDTIAANS
B3: human trypsin 3 (protein)
chain: IVGGYTCEENSLPYQVSLNSGSHFCGGSLISEQWVVSAAHCYKTRIQVRLGEHNIKVLEGNEQFINAAKIIRHPKYNRDTLDNDIMLIKLSSPAVINARVSTISLPTTPPAAGTECLISGWGNTLSFGADYPDELKCLDAPVLTQAECKASYPGKITNSMFCVGFLEGGKDSCQRDSGGPVVCNGQLQGVVSWGHGCAWKNRPGVYTKVYNYVDWIKDTIAANS

Target: T1, synthetic peptide HK2p02 (AARRPFPAPS)

Enzyme activity (chromogenic substrate), showed no inhibition:
B1
B2
B3

Target: T2, synthetic peptide HK2p01 (SRFKVWWAAG)

Enzyme activity (chromogenic substrate), showed no inhibition:
B1
B2
B3

Target: T3, synthetic peptide HK2p03 (PARRPFPVTA)

Enzyme activity (chromogenic substrate), showed no inhibition:
B1
B2
B3
